Reference: patent EP4703384A1 (Chia Tai Tianqing Pharmaceutical Group Co., Ltd., dated 2026)

T1: monkey GPRC5D (monkey, UniProt Q9NZD1 1-343 (human entry))
T1 construct: Full length, on stably transfected CHO-K1 cells; also called cynoGPRC5D; CHO-K1-cynoGPRC5D
T1 chain: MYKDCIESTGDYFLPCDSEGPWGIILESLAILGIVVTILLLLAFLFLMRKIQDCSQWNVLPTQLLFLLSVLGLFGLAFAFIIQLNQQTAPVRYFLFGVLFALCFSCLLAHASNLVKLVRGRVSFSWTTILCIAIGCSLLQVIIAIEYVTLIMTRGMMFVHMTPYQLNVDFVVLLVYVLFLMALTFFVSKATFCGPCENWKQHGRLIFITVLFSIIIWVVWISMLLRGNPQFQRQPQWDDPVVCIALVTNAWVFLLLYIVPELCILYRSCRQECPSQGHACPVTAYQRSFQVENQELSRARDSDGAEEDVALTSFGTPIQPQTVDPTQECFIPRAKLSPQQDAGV

T2: mouse GPRC5D (mouse, UniProt Q9JIL6 1-344)
T2 construct: Full length, on stably transfected CHO-K1 cells; also called murineGPRC5D; CHO-K1-murineGPRC5D
T2 sequence: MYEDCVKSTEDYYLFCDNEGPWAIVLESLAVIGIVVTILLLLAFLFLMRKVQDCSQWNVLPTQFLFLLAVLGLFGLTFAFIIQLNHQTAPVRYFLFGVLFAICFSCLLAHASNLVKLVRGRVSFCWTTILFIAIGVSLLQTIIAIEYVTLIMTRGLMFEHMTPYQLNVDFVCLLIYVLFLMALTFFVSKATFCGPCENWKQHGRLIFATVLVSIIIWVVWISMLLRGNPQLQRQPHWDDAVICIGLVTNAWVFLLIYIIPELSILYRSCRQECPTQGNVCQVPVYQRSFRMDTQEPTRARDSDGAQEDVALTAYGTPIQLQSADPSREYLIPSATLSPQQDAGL


Legend:
human GPRC5D protein = target: T3, human GPRC5D protein (human, UniProt Q9NZD1 1-345); assay: FACS on CHO-K1-hGPRC5D^hi cells
T3 construct: also called hGPRC5D; CHO-K1-hGPRC5D^hi
T3 sequence (Q9NZD1 whole entry): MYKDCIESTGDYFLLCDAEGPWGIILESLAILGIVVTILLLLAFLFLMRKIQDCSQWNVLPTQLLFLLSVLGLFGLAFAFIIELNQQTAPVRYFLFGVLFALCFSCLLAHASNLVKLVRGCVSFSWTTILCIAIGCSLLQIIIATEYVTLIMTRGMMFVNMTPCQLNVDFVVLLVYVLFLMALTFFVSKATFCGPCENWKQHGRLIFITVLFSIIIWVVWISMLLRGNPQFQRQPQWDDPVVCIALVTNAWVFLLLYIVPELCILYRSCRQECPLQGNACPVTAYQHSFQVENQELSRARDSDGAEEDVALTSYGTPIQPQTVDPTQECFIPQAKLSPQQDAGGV

GPRC5C = target: T4, GPRC5C (human, UniProt Q9NQ84 24-441); assay: FACS on CHO-K1-GPRC5C cells
T4 construct: Full length on CHO-K1 cells; also called RAIG3; Human GPRC5C
T4 sequence (Q9NQ84 24-441 limits assumed): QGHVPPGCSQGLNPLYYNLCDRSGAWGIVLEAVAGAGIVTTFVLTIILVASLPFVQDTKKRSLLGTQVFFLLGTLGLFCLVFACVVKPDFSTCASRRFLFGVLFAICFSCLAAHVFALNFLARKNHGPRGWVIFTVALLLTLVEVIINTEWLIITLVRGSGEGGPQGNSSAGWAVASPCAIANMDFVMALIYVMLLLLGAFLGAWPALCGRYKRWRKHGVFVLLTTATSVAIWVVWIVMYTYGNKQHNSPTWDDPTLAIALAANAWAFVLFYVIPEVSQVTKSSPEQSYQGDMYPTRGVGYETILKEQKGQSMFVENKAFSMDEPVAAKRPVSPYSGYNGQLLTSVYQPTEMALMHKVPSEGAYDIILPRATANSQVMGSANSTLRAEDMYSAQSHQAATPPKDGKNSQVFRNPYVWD

monkey GPRC5D = target: T1, monkey GPRC5D; assay: FACS on CHO-K1-cynoGPRC5D cells
GPRC5A = target: T5, GPRC5A (human, UniProt Q8NFJ5 1-357); assay: FACS on CHO-K1-GPRC5A cells
T5 construct: Full length on CHO-K1 cells; also called RAIG1; Human GPRC5A
T5 sequence (Q8NFJ5 whole entry): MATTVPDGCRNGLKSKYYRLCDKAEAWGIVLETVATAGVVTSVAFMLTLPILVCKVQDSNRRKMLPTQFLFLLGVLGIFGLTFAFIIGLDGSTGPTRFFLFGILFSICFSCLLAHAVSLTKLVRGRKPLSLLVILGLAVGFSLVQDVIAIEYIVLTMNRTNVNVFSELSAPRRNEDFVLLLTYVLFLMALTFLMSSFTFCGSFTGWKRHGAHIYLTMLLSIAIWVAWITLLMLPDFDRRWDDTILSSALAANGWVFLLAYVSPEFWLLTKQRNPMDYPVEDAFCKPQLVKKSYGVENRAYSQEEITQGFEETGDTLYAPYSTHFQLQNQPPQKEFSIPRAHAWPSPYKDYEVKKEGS

GPRC5B = target: T6, GPRC5B (human, UniProt Q9NZH0 29-403); assay: FACS on CHO-K1-GPRC5B cells
T6 construct: Full length on CHO-K1 cells; also called RAIG2; Human GPRC5B
T6 sequence (Q9NZH0 29-403 limits assumed): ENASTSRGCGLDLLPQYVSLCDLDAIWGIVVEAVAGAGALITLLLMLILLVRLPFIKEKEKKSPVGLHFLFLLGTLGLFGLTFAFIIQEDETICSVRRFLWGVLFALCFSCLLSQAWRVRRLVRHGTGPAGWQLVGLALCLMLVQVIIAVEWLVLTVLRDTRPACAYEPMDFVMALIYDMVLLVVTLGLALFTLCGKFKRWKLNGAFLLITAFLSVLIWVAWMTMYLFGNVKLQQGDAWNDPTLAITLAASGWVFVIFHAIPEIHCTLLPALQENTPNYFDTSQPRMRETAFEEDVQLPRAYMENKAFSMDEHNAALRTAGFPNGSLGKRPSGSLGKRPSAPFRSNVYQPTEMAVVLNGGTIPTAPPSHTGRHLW

mouse GPRC5D = target: T2, mouse GPRC5D; assay: FACS on CHO-K1-murineGPRC5D cells

| Binder | binding result (human GPRC5D protein) | binding result (GPRC5C) | binding result (monkey GPRC5D) | binding result (GPRC5A) | binding result (GPRC5B) | binding result (mouse GPRC5D) |
| --- | --- | --- | --- | --- | --- | --- |
| Chi-131 (antibody, human IgG1, kappa, V domains shown, Human-mouse chimeric antibody, human IgG1 heavy chain constant region and Kappa light chain constant region; also called chimeric antibody Chi-131) VH: EVQLQQSGPELVKPGASVKMSCKASGYTFTNYVMHWVKQKPGQGLEWIGYFNPYNDGTNYNEKFKGKATLTSDKSSNTAYMELSSLTSEDSAVYYCARGGVRRYFDVWGAGTTVTVSS VL: DIQMTQSPSSLSASLGERVSLTCRASQDIGSNLNWLQLGPDGTIKRLIYATFSLDSGVPKRFSGSRSGSDYSLTISSLESEDFVDYYCQQYANFPPTFGGGTKLEIKR | binds | no binding (tested: 4.1-3000 ng/mL) | binds | no binding (tested: 4.1-3000 ng/mL) | no binding (tested: 4.1-3000 ng/mL) | binds |
| Chi-169 (antibody, human IgG1, kappa, V domains shown, Human-mouse chimeric antibody, human IgG1 heavy chain constant region and Kappa light chain constant region; also called chimeric antibody Chi-169) VH: EVKLVESGGGLVKPGASLKLSCAASGFTFSNYGMSWVRQTSDKRLEWVASISSGGGRIYYPDNVKGRFTISRENAKNTLYLQMSSLKSEDTALYYCTRHAMDNWGQGTSVIVSS VL: QIVLTQSPAIMSASPGEKVTMTCSASSSVSNMYWYQQKSGTSPKRWIYDTSKLASGVPARFSGSGSGTSYSLTISSMEAEDASTYYCQQWSSNPLTFGAGTTLELKR | binds | no binding (tested: 4.1-3000 ng/mL) | binds | no binding (tested: 4.1-3000 ng/mL) | no binding (tested: 4.1-3000 ng/mL) | binds |
| Chi-128 (antibody, human IgG1, kappa, V domains shown, Human-mouse chimeric antibody, human IgG1 heavy chain constant region and Kappa light chain constant region) VH: DVQLVESGGGLVQPGGSRKVSCAASGFTFSSFGMHWVRQAPEKGLEWVAYISRGSSTIYYADTVKGRFTISRDNPKNTLFLQMTSLRSEDTAMYYCARSGYGSSSYYFDYWGQGTTLTVSS VL: ENVLTQSPAIMSASPREKVTMTCRASSSIRSSYLHWYQQKSGASPKLWIYSTSNLASGVPARFSGSGSGTSYSLTISSVEAEDAATYYCQQFSGYPLTFGGGTKLEIKR | binds | no binding (tested: 4.1-3000 ng/mL) | binds | no binding (tested: 4.1-3000 ng/mL) | no binding (tested: 4.1-3000 ng/mL) | binds |

More lines, now with the values ahead:

| binding result (human GPRC5D protein) | binding result (GPRC5C) | binding result (monkey GPRC5D) | binding result (GPRC5A) | binding result (GPRC5B) | binding result (mouse GPRC5D) | Binder |
| --- | --- | --- | --- | --- | --- | --- |
| binds | no binding (tested: 4.1-3000 ng/mL) | binds | no binding (tested: 4.1-3000 ng/mL) | no binding (tested: 4.1-3000 ng/mL) | binds | Chi-89 (antibody, human IgG1, kappa, V domains shown, Human-mouse chimeric antibody, human IgG1 heavy chain constant region and Kappa light chain constant region; also called chimeric antibody Chi-89) VH: EVQLVESGGDLVKPGGSLKLSCAASGFTFSSYGMSWVRQTPDKRLEWVATISSGGSYTYYPDSVKGRFTFSRDNAKNTLYLQMSSLKSEDTAMYYCVRQALRYHMDSWGQGTSVTVSS VL: DIVMTQSQKFMSTSVGDRVSVTCKASQNVGTNVAWYQQKPGQSPKALIYSASYRYSGVPDRFTGSGSGTDFTLTISNVQSEDLADFFCQQYYSYPWTFGGGTKLEIKR |
| binds | no binding (tested: 4.1-3000 ng/mL) | binds | no binding (tested: 4.1-3000 ng/mL) | no binding (tested: 4.1-3000 ng/mL) | – | Chi-105 (antibody, human IgG1, kappa, V domains shown, Human-mouse chimeric antibody, human IgG1 heavy chain constant region and Kappa light chain constant region) VH: EVQLQQSGPELVKPGASVKMSCKASGYTFTDYYMNWVKQSHGKSLEWIGYIYPNNGGTGYNQRFKGKATLTADKSSSTAYMELRSLTSEDSAVYYCARWGGTRLGYYAMDYWGQGTSVTVSS VL: DIVMTQSQKFMSTSVGDRVSVTCKASQNVGTNVVWYQQKPGQSPKLLIYWASTRHTGVPDRFTGSGSGTDFTLTISNVQSEDLADYFCQQYSRYPYTFGGGTKLEIKR |
